Consider 5 molecules from patent publication US20250361282A1 (Bayer, published 2025).

Numbering of substitutions follows the chain as printed.

Experiment in all cases: cell-based or functional assay
One assay concerns the target T1, rat NPR-B (rat, UniProt P16067 17-1047).
T1 sequence (looked up): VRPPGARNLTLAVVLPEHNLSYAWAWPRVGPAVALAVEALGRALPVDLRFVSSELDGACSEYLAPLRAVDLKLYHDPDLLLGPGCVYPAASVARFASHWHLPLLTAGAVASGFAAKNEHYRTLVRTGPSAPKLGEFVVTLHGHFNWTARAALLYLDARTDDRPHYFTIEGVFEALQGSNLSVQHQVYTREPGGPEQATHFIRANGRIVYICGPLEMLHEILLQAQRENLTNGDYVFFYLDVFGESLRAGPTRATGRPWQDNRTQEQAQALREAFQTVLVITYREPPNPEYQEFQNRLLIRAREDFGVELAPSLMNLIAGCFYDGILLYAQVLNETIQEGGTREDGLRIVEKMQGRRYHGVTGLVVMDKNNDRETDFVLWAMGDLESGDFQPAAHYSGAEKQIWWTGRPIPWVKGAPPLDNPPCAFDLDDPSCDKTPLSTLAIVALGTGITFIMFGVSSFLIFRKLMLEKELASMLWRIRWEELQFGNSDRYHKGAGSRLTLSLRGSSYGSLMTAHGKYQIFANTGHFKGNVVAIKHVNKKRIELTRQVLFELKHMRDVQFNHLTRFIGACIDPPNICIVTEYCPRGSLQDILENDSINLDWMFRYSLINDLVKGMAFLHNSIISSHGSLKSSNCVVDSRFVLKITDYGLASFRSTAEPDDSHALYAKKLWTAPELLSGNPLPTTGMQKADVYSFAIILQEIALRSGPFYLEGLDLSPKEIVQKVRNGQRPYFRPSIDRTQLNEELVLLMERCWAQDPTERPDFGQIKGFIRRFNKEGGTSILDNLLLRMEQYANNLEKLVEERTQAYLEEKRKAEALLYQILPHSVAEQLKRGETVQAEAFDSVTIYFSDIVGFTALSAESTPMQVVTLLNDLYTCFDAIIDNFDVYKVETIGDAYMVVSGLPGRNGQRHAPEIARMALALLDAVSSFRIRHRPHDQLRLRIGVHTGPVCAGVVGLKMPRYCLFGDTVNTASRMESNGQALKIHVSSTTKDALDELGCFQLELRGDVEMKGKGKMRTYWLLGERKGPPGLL

The target in another assay is T2, rat NPR-A (rat, UniProt P18910 29-1057).
T2 sequence (looked up): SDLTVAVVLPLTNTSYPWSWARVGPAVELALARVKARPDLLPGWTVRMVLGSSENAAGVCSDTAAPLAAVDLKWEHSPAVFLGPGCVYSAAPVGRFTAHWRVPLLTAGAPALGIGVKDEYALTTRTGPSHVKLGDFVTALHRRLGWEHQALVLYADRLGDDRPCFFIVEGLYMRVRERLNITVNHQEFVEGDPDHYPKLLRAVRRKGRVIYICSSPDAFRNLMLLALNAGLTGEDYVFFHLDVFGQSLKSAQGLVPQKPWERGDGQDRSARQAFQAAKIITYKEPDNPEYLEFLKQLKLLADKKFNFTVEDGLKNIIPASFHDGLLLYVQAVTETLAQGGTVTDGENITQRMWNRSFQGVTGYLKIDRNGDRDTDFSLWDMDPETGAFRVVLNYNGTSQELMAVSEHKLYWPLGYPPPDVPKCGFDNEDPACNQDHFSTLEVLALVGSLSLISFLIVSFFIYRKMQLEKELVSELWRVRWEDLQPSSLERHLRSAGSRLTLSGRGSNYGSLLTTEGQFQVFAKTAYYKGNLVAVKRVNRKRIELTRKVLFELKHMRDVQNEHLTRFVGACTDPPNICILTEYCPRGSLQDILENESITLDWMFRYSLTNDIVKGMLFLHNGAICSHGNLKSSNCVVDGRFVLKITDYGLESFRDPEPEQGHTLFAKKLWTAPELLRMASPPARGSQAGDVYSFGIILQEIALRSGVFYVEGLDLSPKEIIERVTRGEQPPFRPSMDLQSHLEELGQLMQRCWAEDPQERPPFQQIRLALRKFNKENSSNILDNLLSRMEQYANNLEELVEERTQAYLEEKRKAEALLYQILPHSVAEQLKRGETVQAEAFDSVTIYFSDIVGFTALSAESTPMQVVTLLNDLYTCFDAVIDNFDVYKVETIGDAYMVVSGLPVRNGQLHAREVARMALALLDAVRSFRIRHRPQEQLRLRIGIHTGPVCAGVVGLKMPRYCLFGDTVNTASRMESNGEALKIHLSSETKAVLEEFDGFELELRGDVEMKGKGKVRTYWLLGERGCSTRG

Another assay has as its target T3, human NPRA (hNPRA) (human, UniProt P16066 33-1061).
T3 sequence (looked up): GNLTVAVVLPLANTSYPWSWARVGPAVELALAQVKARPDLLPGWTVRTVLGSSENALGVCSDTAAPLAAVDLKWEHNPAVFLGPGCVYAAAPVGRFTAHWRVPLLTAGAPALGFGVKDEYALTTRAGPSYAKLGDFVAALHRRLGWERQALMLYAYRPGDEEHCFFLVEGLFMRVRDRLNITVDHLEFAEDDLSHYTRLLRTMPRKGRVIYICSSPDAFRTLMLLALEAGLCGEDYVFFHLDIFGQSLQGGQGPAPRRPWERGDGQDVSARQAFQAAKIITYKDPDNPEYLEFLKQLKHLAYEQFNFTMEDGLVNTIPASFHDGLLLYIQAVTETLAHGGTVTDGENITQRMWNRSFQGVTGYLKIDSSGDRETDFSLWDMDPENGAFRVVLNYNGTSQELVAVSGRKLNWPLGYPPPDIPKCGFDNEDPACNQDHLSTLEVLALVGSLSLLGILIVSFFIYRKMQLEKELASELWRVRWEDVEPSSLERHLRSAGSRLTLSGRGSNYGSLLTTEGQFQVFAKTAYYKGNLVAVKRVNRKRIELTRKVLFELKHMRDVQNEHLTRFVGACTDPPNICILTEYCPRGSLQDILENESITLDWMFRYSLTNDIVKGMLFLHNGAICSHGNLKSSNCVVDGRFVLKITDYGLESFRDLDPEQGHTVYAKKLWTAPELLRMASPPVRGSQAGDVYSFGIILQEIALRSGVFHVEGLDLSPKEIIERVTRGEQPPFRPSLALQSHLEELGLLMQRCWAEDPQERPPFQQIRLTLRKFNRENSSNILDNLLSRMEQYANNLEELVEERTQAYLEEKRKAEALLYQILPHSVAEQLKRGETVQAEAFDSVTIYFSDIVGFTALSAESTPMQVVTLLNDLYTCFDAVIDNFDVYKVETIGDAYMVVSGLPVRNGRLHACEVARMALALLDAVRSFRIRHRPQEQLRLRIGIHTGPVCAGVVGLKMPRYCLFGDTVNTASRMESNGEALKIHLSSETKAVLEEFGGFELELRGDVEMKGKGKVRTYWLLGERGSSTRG

B1: TPP-9465 (antibody)
heavy: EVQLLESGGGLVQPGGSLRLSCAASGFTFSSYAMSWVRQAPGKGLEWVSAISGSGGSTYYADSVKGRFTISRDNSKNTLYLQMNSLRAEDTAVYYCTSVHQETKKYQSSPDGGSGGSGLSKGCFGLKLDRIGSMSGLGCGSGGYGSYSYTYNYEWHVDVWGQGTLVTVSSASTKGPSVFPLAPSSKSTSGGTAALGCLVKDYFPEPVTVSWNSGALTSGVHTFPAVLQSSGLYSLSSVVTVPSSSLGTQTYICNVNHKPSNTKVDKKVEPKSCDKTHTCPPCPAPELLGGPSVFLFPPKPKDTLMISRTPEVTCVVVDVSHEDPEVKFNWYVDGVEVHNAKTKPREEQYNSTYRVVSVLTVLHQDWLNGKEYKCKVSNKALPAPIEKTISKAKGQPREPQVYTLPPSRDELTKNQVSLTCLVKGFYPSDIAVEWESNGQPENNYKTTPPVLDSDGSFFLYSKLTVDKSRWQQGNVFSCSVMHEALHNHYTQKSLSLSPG
light: QSVLTQPPSVSGAPGQRVTISCTGSSSNIGAGYDVHWYQQLPGTAPKLLIYGNSNRPSGVPDRFSGSKSGTSASLAITGLQAEDEADYYCQSYDSSLSGVVFGGGTKLTVLGQPKAAPSVTLFPPSSEELQANKATLVCLISDFYPGAVTVAWKADSSPVKAGVETTTPSKQSNNKYAASSYLSLTPEQWKSHRSYSCQVTHEGSTVEKTVAPTECS
As to B1, the “EC50, luminescence signal of rat NPR-B reporter cells” value (from here on “EC50, luminescence signal”) in the assay with rat NPR-B stood at 5.2 nM.

B2: TPP-12897 (antibody)
heavy: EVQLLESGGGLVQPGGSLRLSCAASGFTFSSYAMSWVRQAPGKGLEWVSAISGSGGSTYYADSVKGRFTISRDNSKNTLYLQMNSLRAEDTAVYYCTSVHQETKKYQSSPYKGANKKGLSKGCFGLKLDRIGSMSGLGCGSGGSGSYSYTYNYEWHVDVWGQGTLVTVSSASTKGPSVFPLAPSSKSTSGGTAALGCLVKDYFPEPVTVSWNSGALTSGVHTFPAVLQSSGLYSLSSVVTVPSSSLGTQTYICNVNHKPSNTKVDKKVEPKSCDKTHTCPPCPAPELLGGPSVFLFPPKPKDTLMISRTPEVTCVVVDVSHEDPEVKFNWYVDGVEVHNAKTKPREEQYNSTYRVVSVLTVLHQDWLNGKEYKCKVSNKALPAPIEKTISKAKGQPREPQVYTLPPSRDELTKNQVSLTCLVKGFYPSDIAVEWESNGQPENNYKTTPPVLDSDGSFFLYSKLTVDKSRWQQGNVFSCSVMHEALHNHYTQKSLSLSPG
light: B1 light with S98D
With B2, the “EC50, luminescence signal” value with rat NPR-B came out at 10 nM.

B3: TPP-5661 (antibody)
heavy: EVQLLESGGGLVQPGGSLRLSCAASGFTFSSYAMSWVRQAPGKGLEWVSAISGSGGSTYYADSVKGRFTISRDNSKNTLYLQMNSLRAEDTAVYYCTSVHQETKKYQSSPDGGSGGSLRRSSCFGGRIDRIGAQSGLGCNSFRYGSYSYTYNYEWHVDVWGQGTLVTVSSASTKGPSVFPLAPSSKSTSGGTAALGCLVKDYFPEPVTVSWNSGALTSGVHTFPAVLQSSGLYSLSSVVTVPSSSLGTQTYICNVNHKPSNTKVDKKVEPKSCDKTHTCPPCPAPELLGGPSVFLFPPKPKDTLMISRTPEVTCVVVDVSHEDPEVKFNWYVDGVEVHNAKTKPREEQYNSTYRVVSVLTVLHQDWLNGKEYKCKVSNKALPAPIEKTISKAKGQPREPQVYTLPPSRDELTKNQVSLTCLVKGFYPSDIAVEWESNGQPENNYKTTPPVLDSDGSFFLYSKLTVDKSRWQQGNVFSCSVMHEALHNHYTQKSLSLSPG
light: B1 light
Turning to B3, the “EC50, fluorescence signal of rat NPR-A / CNGA2 (cGMP biosensor) / GCaMP6 CHO reporter cells” value with rat NPR-A came to 17 nM. Moreover, in the assay with human NPRA (hNPRA), the “logEC50, cGMP quantification assay (HTRF), stable hNPRA-CHO k1 cells, isolated compound sample” value is -8.8; the “logEC50, cGMP quantification assay (HTRF), stable hNPRA-CHO k1 cells, purified compound sample, average of experiments” value is -9.2; the “logEC50, cGMP quantification assay (HTRF), transient hNPRA-HEK293 cells, purified compound sample, average of three experiments” value was -9.

B4: TPP-12377 (antibody)
heavy: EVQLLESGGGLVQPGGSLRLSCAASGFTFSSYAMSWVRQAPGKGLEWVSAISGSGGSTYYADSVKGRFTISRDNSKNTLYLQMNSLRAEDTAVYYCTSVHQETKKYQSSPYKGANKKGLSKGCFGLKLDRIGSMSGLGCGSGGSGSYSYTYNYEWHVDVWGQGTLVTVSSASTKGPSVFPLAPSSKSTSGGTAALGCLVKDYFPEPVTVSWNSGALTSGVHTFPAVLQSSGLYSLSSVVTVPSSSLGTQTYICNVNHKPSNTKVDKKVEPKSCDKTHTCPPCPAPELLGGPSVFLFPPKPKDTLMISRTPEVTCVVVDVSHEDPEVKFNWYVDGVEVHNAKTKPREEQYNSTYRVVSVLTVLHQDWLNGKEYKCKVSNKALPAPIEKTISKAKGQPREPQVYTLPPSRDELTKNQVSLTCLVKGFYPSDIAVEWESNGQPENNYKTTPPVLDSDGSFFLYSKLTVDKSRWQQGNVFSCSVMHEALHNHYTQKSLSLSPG
light: B1 light
Consider B4, for which the “EC50, luminescence signal” value with rat NPR-B stood at 4.1 nM.

B5: TPP-11153 (antibody, V domains shown)
VH: EVQLLESGGGLVQPGGSLRLSCAASGFTFSSYAMSWVRQAPGKGLEWVSAISGSGGSTYYADSVKGRFTISRDNSKNTLYLQMNSLRAEDTAVYYCTSVHQETKKYQSSPDGGSGGSGGGSYSYTYNYEWHVDVWGQGTLVTVSS
VL: QSVLTQPPSVSGAPGQRVTISCTGSSSNIGAGYDVHWYQQLPGTAPKLLIYGNSNRPSGVPDRFSGSKSGTSASLAITGLQAEDEADYYCQSYDSSLSGVVFGGGTKLTVLG
For B5, in the assay with rat NPR-A, the “EC50, fluorescence signal of rat NPR-A / CNGA2 (cGMP biosensor) / GCaMP6 CHO reporter cells” value is more than 1900 nM and the “EC50 on rNPRA reporter cells” value was more than 1000 nM.
